# Experimental data from PMC3043095.
# Assays:
# [1] = molecular target: leafhopper actin (Circulifer haematoceps, Ciha-1 cells) (Circulifer haematoceps (endogenous in Ciha-1))
# [2] = molecular target: leafhopper actin (Circulifer haematoceps, Ciha-1 cells) (Circulifer haematoceps (endogenous in Ciha-1)); remark: listed apart in the source
substance,measurement,setting,value
"Spiroplasma citri phosphoglycerate kinase, His6-tagged, full length (from UniProt Q7WTU1 1-412) (enzyme)",S. citri transmission by infected leafhoppers injected with 0.2 µg His6-tagged PGK: relative percentage of batches with positive culture (phosphate buffer = 100) (% relative to phosphate buffer control),[1],51.7
same,inhibition of S. citri internalization into Ciha-1 cells (gentamicin protection assay) after preincubation of cells with 400 µg/ml His6-tagged PGK (% inhibition of invasion),[2],85
His6-tagged PGK-FL4 (S. citri PGK amino acids 101 to 412) (from UniProt Q7WTU1 101-412) (domain or fragment),S. citri transmission by infected leafhoppers injected with 0.2 µg PGK-FL4: relative percentage of batches with positive culture (phosphate buffer = 100) (% relative to phosphate buffer control),[1],101
His6-tagged PGK-FL5 (S. citri PGK amino acids 49 to 154) (from UniProt Q7WTU1 49-154) (domain or fragment),S. citri transmission by infected leafhoppers injected with 0.2 µg PGK-FL5: relative percentage of batches with positive culture (phosphate buffer = 100) (% relative to phosphate buffer control),[1],58.6
same,reduction of S. citri internalization into Ciha-1 cells (gentamicin protection assay) after preincubation of cells with 50 and 400 µg/ml PGK-FL5 (45% and 80%) (% reduction of internalization),[2],80
